Laboratory results: paper PMC7215387, “Comparison of Target Recognition by TRAF1 and TRAF2” (International Journal of Molecular Sciences, 2020)

What was measured:
[1] = target: T1, TRAF1 (Homo sapiens, UniProt Q13077); experiment: Native-PAGE complex formation with TRAF1; format: binding; settings: 8% to 25% acrylamide gradient gels, Coomassie; 1 h at 4 °C; TRAF1 TRAF domain (220-416)
T1 construct: the TRAF1 TRAF domain (amino acid residues 220-416); 6xHis (C); made in house; host or cells: E. coli BL21 (DE3)
T1 sequence (Q13077 220-416): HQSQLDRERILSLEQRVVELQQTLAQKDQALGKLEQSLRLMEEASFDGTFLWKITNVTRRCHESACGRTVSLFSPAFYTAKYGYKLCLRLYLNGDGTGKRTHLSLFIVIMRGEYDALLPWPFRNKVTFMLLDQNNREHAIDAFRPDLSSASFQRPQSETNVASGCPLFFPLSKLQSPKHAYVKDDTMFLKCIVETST
From the text: TRADD is a well-known regulator of the TRAF function. The death domain located at the C-terminus of TRADD interacts with death-domain containing receptors and adaptor proteins including TNFR, receptor interacting protein 1 (RIP1) and Fas-associated death domain protein (FADD), while the N-terminal domain of TRADD (TRADD-N) interacts with the TRAF domain of TRAF2 (Figure 2a). Although several indirect interactions between TRAF1 and TRADD have been described, a direct interaction and direct analyses between TRAF1 and TRADD have not been reported. To directly study their interactions and binding properties, which may provide important clues for understanding TRAF-mediated signaling by TRADD, TRAFs and TRADD-N were purified, and initial interaction testing was performed by Native-PAGE. […] Although TRAF1 did interact with TRADD-N, this interaction was not as tight as with TRAF2 (Figure 2b). To further confirm this association, the interaction between the TRAFs and TRADD-N was further tested by size-exclusion chromatography. […]
The formation of complexes was assayed by native (non-denaturing) PAGE conducted on a PhastSystem (GE Healthcare) with pre-cast 8% to 25% acrylamide gradient gels (GE Healthcare). […] Complex formation was evaluated based on the appearance of newly formed bands or the disappearance of bands that were detected in single control protein bands.

[2] = target: TRAF2 S454A mutant; experiment: Isothermal titration calorimetry (ITC), TRAF2 S454A mutant; format: binding; settings: Supplementary Figure S1
Experimental: The binding affinities between TRADD-N and TRAF1 or TRAF2 were further quantitatively analyzed using surface plasmon resonance (SPR) experiments (Figure 3a,b). For the SPR experiment, each purified 6xHis-tagged TRAF1 and TRAF2 was coupled to Ni-NTA sensor chips using a His-tag affinity system. Different concentrations of TRADD-N protein, from 0.39 to 3.125 μM, were analyzed for binding to TRAF1 or TRAF2. […] Given their interaction patterns and affinity differences in complex formation, we modeled the structure of the TRAF1:TRADD-N complex by docking TRADD-N to a previously solved TRAF1 structure based on the TRAF2:TRADD-N complex to better understand the affinity differences (Figure 3c,d). According to the previously determined structure of the TRAF2:TRADD-N complex, two distinct binding regions, Region I and II, were identified (Figure 3e). The specific residues from TRAF2 that contributed to the interaction in Region I were T401, H406, L471, and P474. The interaction-contributing residues on TRAF2 in Region II were D445, R448, P449, D450, S454 and G468. All residues in TRAF2 that participated in the interaction with TRADD-N were conserved in TRAF1, except for S454, which was replaced by alanine in TRAF1 (Figure 3f). […]
A NanoITC (TA Instruments) was used for isothermal titration calorimetry experiments. […] Binding isotherms were analyzed by using the software provided by TA Instruments. […]

- Kd [2]: ~55 nM
B1: TRADD-N: N-terminal domain of TRADD (TRADD-N, amino acid residues 1-163) (protein)
chain: MAAGQNGHEEWVGSAYLFVESSLDKVVLSDAYAHPQQKVAVYRALQAALAESGGSPDVLQMLKIHRSDPQLIVQLRFCGRQPCGRFLRAYREGALRAALQRSLAAALAQHSVPLQLELRAGAERLDALLADEERCLSCILAQQPDRLRDEELAELEDALRNLK
modifications: left off: His6 (from the vector pET24a), C-terminal, state not stated
- Native-PAGE band change on incubation with TRAF1 [1]: only a small portion of the TRADD-N band disappeared
